Results taken from PMC7387707, “An (R)-Selective Transaminase From Thermomyces stellatus: Stabilizing the Tetrameric Form” (Frontiers in Bioengineering and Biotechnology, 2020).

Key:
TsRTA [1] = target: T1, TsRTA (Microascus stellatus, UniProt Z9EHZ8S8K6); experiment: X-ray structure, […] Å; type: binding; conditions: covalent (imine with K178); active site
T1 construct: codon-optimised synthetic gene in pCH93b (pET22b(+)-derived, TEV site added), E. coli BL21 STAR (DE3), Ni-IMAC, C-terminal His-tag; structure residues 1-319 seen, 320-334 plus tag disordered
T1 sequence (Z9EHZ8S8K6 10-343): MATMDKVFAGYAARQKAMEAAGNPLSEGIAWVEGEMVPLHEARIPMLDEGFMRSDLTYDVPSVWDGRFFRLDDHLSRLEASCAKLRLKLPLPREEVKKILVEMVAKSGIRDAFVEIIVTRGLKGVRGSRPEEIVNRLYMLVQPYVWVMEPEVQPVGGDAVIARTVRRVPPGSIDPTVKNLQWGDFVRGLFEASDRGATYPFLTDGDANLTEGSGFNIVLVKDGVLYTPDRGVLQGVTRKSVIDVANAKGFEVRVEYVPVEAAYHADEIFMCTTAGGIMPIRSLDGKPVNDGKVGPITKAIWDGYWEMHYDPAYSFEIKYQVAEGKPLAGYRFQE

TsRTA [2] = target: T1, TsRTA; experiment: acetophenone formation, plate reader; substrate-inhibition fit; type: biochemical; conditions: 30 °C, pH 8
Text: (§1) acetophenone formation, plate reader; substrate-inhibition fit on TsRTA

TsRTA [3] = target: T2, TsRTA (Microascus stellatus, UniProt Z9EHZ8S8K6, G205C); experiment: as above; type: biochemical; conditions: 10 mM pyruvate, 1% DMSO, 30 °C, pH 8
T2 construct: codon-optimised synthetic gene in pCH93b (pET22b(+)-derived, TEV site added), E. coli BL21 STAR (DE3), Ni-IMAC, C-terminal His-tag; structure residues 1-319 seen, 320-334 plus tag disordered
T2 sequence (Z9EHZ8S8K6 10-343 G205C): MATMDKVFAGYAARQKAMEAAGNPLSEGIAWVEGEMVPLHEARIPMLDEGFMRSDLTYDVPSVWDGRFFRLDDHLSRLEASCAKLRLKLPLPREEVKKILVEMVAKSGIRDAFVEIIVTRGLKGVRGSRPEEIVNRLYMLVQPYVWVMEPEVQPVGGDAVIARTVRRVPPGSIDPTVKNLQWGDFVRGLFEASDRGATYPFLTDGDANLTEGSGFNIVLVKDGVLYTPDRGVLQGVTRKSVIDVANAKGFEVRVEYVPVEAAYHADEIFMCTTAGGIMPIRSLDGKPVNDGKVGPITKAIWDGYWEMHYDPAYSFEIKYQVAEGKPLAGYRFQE
Text: as §1

AtRTA = target: T3, AtRTA (Aspergillus terreus, UniProt Q0C8G1); experiment: as above; type: biochemical; conditions: 30 °C, pH 8
T3 construct: gene ATEG_10023; synthetic gene (Johnson Matthey) in pCH93b (pET22b(+)-derived, TEV site added), E. coli BL21 STAR (DE3), Ni-IMAC
Text: (§2) acetophenone formation, plate reader; substrate-inhibition fit on AtRTA

CC(=O)C(=O)O [4] = experiment: purified protein; conditions: 2.5 mM RMBA, 0.25% DMSO, 30 °C, pH 8
C[C@@H](N)c1ccccc1 [5] = experiment: purified protein; conditions: 10 mM pyruvate, 1% DMSO, 30 °C, pH 8
[6] = target: AtRTA_G207C (Aspergillus terreus) (UniProt Q0C8G1)
[7] = target: AtRTA_G207C (Aspergillus terreus) (UniProt Q0C8G1); experiment: SEC
C[C@@H](N)c1ccccc1 [8] = experiment: acetophenone formation, plate reader; substrate-inhibition fit; type: biochemical, Aspergillus terreus; conditions: 10 mM pyruvate, 1% DMSO, 30 °C, pH 8
Text: as §2

Q0C8G1 = conditions: SEC
[9] = SEC; Superdex 200 10/300 GL; 50 mM potassium phosphate, 100 mM NaCl, 0.1 mM PLP, pH 8; ca 2 mg/mL protein; injected directly after preparation or after incubation (ambient temperature; or 10 mM β-mercaptoethanol at 4°C for 2 days, dialysis, overnight aeration); shares of tetramer, dimer and …
CC(=O)C(=O)O [10] = experiment: acetophenone formation, plate reader; substrate-inhibition fit; type: biochemical, Aspergillus terreus; conditions: 2.5 mM RMBA, 0.25% DMSO, 30 °C, pH 8
Text: as §2

[11] = target: TsRTA_G205C (Thermomyces stellatus); experiment: SEC; Superdex 200 10/300 GL; 50 mM potassium phosphate, 100 mM NaCl, 0.1 mM PLP, pH 8; ca 2 mg/mL protein; injected directly after preparation or after incubation (ambient temperature; or 10 mM β-mercaptoethanol at 4°C for 2 days, dialysis, overnight aeration); shares of tetramer, dimer and monomer; 0-1,200 mM NaCl had no effect on the tetramer
[12] = target: (R)-selective transaminase from Thermomyces stellatus (TsRTA), wild type (Thermomyces stellatus); experiment: as above
CC(=O)C(=O)O [13] = experiment: acetophenone formation, plate reader; substrate-inhibition fit; type: biochemical, Microascus stellatus; conditions: 2.5 mM RMBA, 0.25% DMSO, 30 °C, pH 8
Text: as §1

C[C@@H](N)c1ccccc1 [14] = experiment: as above; type: biochemical, Microascus stellatus; conditions: 10 mM pyruvate, 1% DMSO, 30 °C, pH 8
Text: as §1

[15] = target: the molecule itself; experiment: SEC; Superdex 200 10/300 GL; 50 mM potassium phosphate, 100 mM NaCl, 0.1 mM PLP, pH 8; ca 2 mg/mL protein; injected directly after preparation or after incubation (ambient temperature; or 10 mM β-mercaptoethanol at 4°C for 2 days, dialysis, overnight aeration); shares of tetramer, dimer and monomer; 0-1,200 mM NaCl had no effect on the tetramer

Cc1ncc(COP(=O)(O)O)c(C=O)c1O [PLP]
X-ray structure, 2.2 Å (TsRTA [1]): The active site pocket houses a single PLP molecule, covalently bound to each TsRTA chain

C[C@@H](N)c1ccccc1 [RMBA]
Ki (TsRTA [2]; 10 mM pyruvate, 1% DMSO): 15 ± 1 mM
Ki (TsRTA [3]): 20 ± 2 mM
Ki (AtRTA; 10 mM pyruvate, 1% DMSO): 19 ± 1 mM

TsRTA (Microascus stellatus; G205C)
Km (CC(=O)C(=O)O [4]): 420 ± 10 µM
kcat (CC(=O)C(=O)O [4]): 1.33 ± 0.02 s⁻¹
kcat/Km (CC(=O)C(=O)O [4]): 3200 ± 100 M⁻¹ s⁻¹
Km (C[C@@H](N)c1ccccc1 [5]): 120 ± 10 µM
kcat (C[C@@H](N)c1ccccc1 [5]): 1.35 ± 0.03 s⁻¹
kcat/Km (C[C@@H](N)c1ccccc1 [5]): 11000 ± 600 M⁻¹ s⁻¹

CC(=O)C(=O)O [Pyruvate]
Ki (TsRTA [2]; 2.5 mM RMBA, 0.25% DMSO): 39 ± 5 mM
Ki (AtRTA; 2.5 mM RMBA, 0.25% DMSO): 52 ± 4 mM

AtRTA_G207C (from UniProt Q0C8G1 1-325) (enzyme)
increase in enzyme activity after β-mercaptoethanol pre-treatment [6]: 65%
percent dimer (after β-mercaptoethanol, dialysis and aeration) [7]: 5%
percent dimer (immediately following purification) [7]: 19%
percent dimer and tetramer (after β-mercaptoethanol pre-treatment) [7]: 94%
percent dimer and tetramer (before β-mercaptoethanol pre-treatment) [7]: 57%
percent monomer (after β-mercaptoethanol, dialysis and aeration) [7]: 6%
percent monomer (immediately following purification) [7]: 52%
percent tetramer (after β-mercaptoethanol, dialysis and aeration) [7]: 89%
percent tetramer (immediately following purification) [7]: 28%
stoichiometry N [7]: 4

AtRTA (Aspergillus terreus NIH2624)
Km (C[C@@H](N)c1ccccc1 [8]): 170 ± 10 µM
kcat (C[C@@H](N)c1ccccc1 [8]): 2.24 ± 0.04 s⁻¹
kcat/Km (C[C@@H](N)c1ccccc1 [8]): 13300 ± 500 M⁻¹ s⁻¹

AtRTA_G207C
percent tetramer (sample with a lower proportion of tetramer used for the thermostability assay) (Q0C8G1): AtRTA_G207C: 55% tetramer

TsRTA_G205C
percent tetramer (sample with a lower proportion of tetramer used for the thermostability assay) [9]: TsRTA_G205C: 75% tetramer

AtRTA (Aspergillus terreus NIH2624; G207C)
Km (CC(=O)C(=O)O [10]): 190 ± 10 µM
kcat (CC(=O)C(=O)O [10]): 1.71 ± 0.03 s⁻¹
kcat/Km (CC(=O)C(=O)O [10]): 9200 ± 500 M⁻¹ s⁻¹
Km (C[C@@H](N)c1ccccc1 [8]): 300 ± 20 µM
kcat (C[C@@H](N)c1ccccc1 [8]): 1.96 ± 0.05 s⁻¹
kcat/Km (C[C@@H](N)c1ccccc1 [8]): 6400 ± 300 M⁻¹ s⁻¹

TsRTA_G205C (enzyme)
percent dimer (after β-mercaptoethanol, dialysis and aeration) [11]: 11%
percent dimer (immediately following purification) [11]: 42%
percent monomer (immediately following purification) [11]: 2%
percent tetramer (after β-mercaptoethanol, dialysis and aeration) [11]: 89%
percent tetramer (immediately following purification) [11]: 55%
stoichiometry N [11]: 4

(R)-selective transaminase from Thermomyces stellatus (TsRTA), wild type (enzyme)
percent dimer [12]: 10%
percent tetramer [12]: 90%
stoichiometry N [12]: 4

TsRTA (Microascus stellatus)
Km (CC(=O)C(=O)O [13]): 570 ± 30 µM
kcat (CC(=O)C(=O)O [13]): 2.21 ± 0.04 s⁻¹
kcat/Km (CC(=O)C(=O)O [13]): 3900 ± 100 M⁻¹ s⁻¹
Km (C[C@@H](N)c1ccccc1 [14]): 130 ± 10 µM
kcat (C[C@@H](N)c1ccccc1 [14]): 1.82 ± 0.03 s⁻¹
kcat/Km (C[C@@H](N)c1ccccc1 [14]): 13800 ± 600 M⁻¹ s⁻¹

B1: (R)-selective transaminase from Aspergillus terreus (AtRTA), wild type (enzyme)
chain: MASMDKVFAGYAARQAILESTETTNPFAKGIAWVEGELVPLAEARIPLLDQGFMHSDLTYDVPSVWDGRFFRLDDHITRLEASCTKLRLRLPLPRDQVKQILVEMVAKSGIRDAFVELIVTRGLKGVRGTRPEDIVNNLYMFVQPYVWVMEPDMQRVGGSAVVARTVRRVPPGAIDPTVKNLQWGDLVRGMFEAADRGATYPFLTDGDAHLTEGSGFNIVLVKDGVLYTPDRGVLQGVTRKSVINAAEAFGIEVRVEFVPVELAYRCDEIFMCTTAGGIMPITTLDGMPVNGGQIGPITKKIWDGYWAMHYDAAYSFEIDYNERN
notes: the forward primer holds the ATG; Same vector as TsRTA, whose His-tag is C-terminal; also called omega transaminase from Aspergillus terreus; source: E. coli BL21 STAR (DE3), purified (IMAC)
stoichiometry N [15]: 4
